This assay has as its target H4 conjugated to SUMO (UniProt P62799). Nature of the assay: refolding of the histone complex, analysed by SDS-PAGE.

In general, stoichiometry N refers to a count of units in the complex or per binding partner.

Take “H3K23ac (H3 with acetylation at K23) (from UniProt P84233 1-136) (natural protein)”: the stoichiometry N is 1 H3K23ac:H4.

Values taken from paper PMC5989136.
